This is an account of results in PMC8531034, “Structural insights into RNA polymerase III-mediated transcription termination through trapping poly-deoxythymidine” (Nature Communications, 2021).

The labels stand for the following.
B2: RPC2, subunit of human RNA polymerase III (natural protein)
chain: MDVLAEEFGNLTPEQLAAPIPTVEEKWRLLPAFLKVKGLVKQHIDSFNYFINVEIKKIMKANEKVTSDADPMWYLKYLNIYVGLPDVEESFNVTRPVSPHECRLRDMTYSAPITVDIEYTRGSQRIIRNALPIGRMPIMLRSSNCVLTGKTPAEFAKLNECPLDPGGYFIVKGVEKVILIQEQLSKNRIIVEADRKGAVGASVTSSTHEKKSRTNMAVKQGRFYLRHNTLSEDIPIVIIFKAMGVESDQEIVQMIGTEEHVMAAFGPSLEECQKAQIFTQMQALKYIGNKVRRQRMWGGGPKKTKIEEARELLASTILTHVPVKEFNFRAKCIYTAVMVRRVILAQGDNKVDDRDYYGNKRLELAGQLLSLLFEDLFKKFNSEMKKIADQVIPKQRAAQFDVVKHMRQDQITNGMVNAISTGNWSLKRFKMDRQGVTQVLSRLSYISALGMMTRISSQFEKTRKVSGPRSLQPSQWGMLCPSDTPEGEACGLVKNLALMTHITTDMEDGPIVKLASNLGVEDVNLLCGEELSYPNVFLVFLNGNILGVIRDHKKLVNTFRLMRRAGYINEFVSISTNLTDRCVYISSDGGRLCRPYIIVKKQKPAVTNKHMEELAQGYRNFEDFLHESLVEYLDVNEENDCNIALYEHTINKDTTHLEIEPFTLLGVCAGLIPYPHHNQSPRNTYQCAMGKQAMGTIGYNQRNRIDTLMYLLAYPQKPMVKTKTIELIEFEKLPAGQNATVAVMSYSGYDIEDALVLNKASLDRGFGRCLVYKNAKCTLKRYTNQTFDKVMGPMLDAATRKPIWRHEILDADGICSPGEKVENKQVLVNKSMPTVTQIPLEGSNVPQQPQYKDVPITYKGATDSYIEKVMISSNAEDAFLIKMLLRQTRRPEIGDKFSSRHGQKGVCGLIVPQEDMPFCDSGICPDIIMNPHGFPSRMTVGKLIELLAGKAGVLDGRFHYGTAFGGSKVKDVCEDLVRHGYNYLGKDYVTSGITGEPLEAYIYFGPVYYQKLKHMVLDKMHARARGPRAVLTRQPTEGRSRDGGLRLGEMERDCLIGYGASMLLLERLMISSDAFEVDVCGQCGLLGYSGWCHYCKSSCHVSSLRIPYACKLLFQELQSMNIIPRLKLSKYNE
notes: RPC2, second largest subunit of human RNA polymerase III (catalytic core; lobe, protrusion, fork loops 1 and 2); Subunit of the 17-subunit Pol III complex; source: Expi293F cells, transiently expressed, purified to homogeneity as part of the recombinant human Pol III complex

The target of assay [1] is B2. Nature of the assay: cryo-EM structure; recombinant human Pol III (17 subunits) assembled with a DNA-RNA scaffold with seven dT in the non-template strand, 1:2 molar ratio, dialysed in 20 mM HEPES pH 8.0, 150 mM NaCl, 2 mM MgCl2, 2 mM DTT; 3D classification gave two states, PTC (3.6 Å, core 3.3 Å) and EC (3.6 Å). The conditions noted are these: both partners purified.

Assay [2] concerns the target T1, RPC1, subunit of human RNA polymerase III (human, UniProt O14802 1-1390).
T1 construct: RPC1, largest subunit of human RNA polymerase III (catalytic core); Subunit of the 17-subunit Pol III complex; source: Expi293F cells, transiently expressed, purified to homogeneity as part of the recombinant human Pol III complex
T1 sequence: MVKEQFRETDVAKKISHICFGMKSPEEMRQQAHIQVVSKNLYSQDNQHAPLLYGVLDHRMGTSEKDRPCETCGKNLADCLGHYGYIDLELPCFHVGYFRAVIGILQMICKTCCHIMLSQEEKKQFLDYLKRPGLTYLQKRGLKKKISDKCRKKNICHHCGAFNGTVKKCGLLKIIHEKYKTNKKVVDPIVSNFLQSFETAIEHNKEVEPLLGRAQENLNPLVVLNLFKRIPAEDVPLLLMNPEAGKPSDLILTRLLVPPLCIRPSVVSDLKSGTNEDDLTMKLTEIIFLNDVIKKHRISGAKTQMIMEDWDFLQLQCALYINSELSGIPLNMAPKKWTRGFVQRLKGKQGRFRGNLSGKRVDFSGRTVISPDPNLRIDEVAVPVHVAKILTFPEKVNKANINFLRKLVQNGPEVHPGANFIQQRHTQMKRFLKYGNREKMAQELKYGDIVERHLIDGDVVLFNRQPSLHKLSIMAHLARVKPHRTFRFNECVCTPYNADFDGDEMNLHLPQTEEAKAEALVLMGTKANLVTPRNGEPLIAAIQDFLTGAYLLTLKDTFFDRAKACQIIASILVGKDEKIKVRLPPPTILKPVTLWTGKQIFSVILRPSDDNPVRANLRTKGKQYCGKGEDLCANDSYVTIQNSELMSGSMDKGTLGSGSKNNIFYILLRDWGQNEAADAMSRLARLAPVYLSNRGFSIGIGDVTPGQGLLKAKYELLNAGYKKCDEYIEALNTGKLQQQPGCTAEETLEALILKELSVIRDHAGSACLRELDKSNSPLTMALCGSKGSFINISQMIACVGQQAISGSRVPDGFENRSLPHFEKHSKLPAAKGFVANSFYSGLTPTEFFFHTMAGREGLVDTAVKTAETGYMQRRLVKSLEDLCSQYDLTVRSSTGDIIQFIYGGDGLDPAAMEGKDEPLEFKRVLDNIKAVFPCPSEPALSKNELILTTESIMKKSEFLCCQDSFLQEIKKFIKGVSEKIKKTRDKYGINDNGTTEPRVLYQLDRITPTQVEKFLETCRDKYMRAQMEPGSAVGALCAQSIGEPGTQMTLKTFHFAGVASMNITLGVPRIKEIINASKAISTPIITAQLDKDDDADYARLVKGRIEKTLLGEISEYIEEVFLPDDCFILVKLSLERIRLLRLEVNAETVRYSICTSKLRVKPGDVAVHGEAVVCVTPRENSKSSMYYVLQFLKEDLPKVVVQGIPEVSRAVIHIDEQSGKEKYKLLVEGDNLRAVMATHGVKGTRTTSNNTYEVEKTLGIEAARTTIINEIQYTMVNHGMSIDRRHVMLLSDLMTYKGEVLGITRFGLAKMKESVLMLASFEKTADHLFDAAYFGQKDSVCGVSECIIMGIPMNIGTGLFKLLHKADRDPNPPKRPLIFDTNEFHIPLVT
The description is as above. The conditions noted are these: both partners purified.

B1: RPC4-RPC5 dimer module of human RNA polymerase III (complex)
chain 1: MSEGNAAGEPSTPGGPRPLLTGARGLIGRRPAPPLTPGRLPSIRSRDLTLGGVKKKTFTPNIISRKIKEEPKEEVTVKKEKRERDRDRQREGHGRGRGRPEVIQSHSIFEQGPAEMMKKKGNWDKTVDVSDMGPSHIINIKKEKRETDEETKQILRMLEKDDFLDDPGLRNDTRNMPVQLPLAHSGWLFKEENDEPDVKPWLAGPKEEDMEVDIPAVKVKEEPRDEEEEAKMKAPPKAARKTPGLPKDVSVAELLRELSLTKEEELLFLQLPDTLPGQPPTQDIKPIKTEVQGEDGQVVLIKQEKDREAKLAENACTLADLTEGQVGKLLIRKSGRVQLLLGKVTLDVTMGTACSFLQELVSVGLGDSRTGEMTVLGHVKHKLVCSPDFESLLDHKHR
chain 2: MANEEDDPVVQEIDVYLAKSLAEKLYLFQYPVRPASMTYDDIPHLSAKIKPKQQKVELEMAIDTLNPNYCRSKGEQIALNVDGACADETSTYSSKLMDKQTFCSSQTTSNTSRYAAALYRQGELHLTPLHGILQLRPSFSYLDKADAKHREREAANEAGDSSQDEAEDDVKQITVRFSRPESEQARQRRVQSYEFLQKKHAEEPWVHLHYYGLRDSRSEHERQYLLCPGSSGVENTELVKSPSEYLMMLMPPSQEEEKDKPVAPSNVLSMAQLRTLPLADQIKILMKNVKVMPFANLMSLLGPSIDSVAVLRGIQKVAMLVQGNWVVKSDILYPKDSSSPHSGVPAEVLCRGRDFVMWKFTQSRWVVRKEVATVTKLCAEDVKDFLEHMAVVRINKGWEFILPYDGEFIKKHPDVVQRQHMLWTGIQAKLEKVYNLVKETMPKKPDAQSGPAGLVCGDQRIQVAKTKAQQNHALLERELQRRKEQLRVPAVPPGVRIKEEPVSEEGEEDEEQEAEEEPMDTSPSGLHSKLANGLPLGRAAGTDSFNGHPPQGCASTPVARELKAFVEATFQRQFVLTLSELKRLFNLHLASLPPGHTLFSGISDRMLQDTVLAAGCKQILVPFPPQTAASPDEQKVFALWESGDMSDQHRQVLLEIFSKNYRVRRNMIQSRLTQECGEDLSKQEVDKVLKDCCVSYGGMWYLKGTVQS
notes: RPC4 of human RNA polymerase III (dimer module); RPC5 of human RNA polymerase III (dimer module; holds the hotspot); the mammal-specific C-terminal domain was not seen in the PTC map; Named throughout as a heterodimer; Part of the 17-subunit Pol III complex; also called RPC4-5; C53-C37 (yeast equivalent); source: Expi293F cells, transiently expressed, purified to homogeneity as part of the …
For B1, the binding result in assay [1] is given as “binds”.

With B2, the binding result in assay [2] is on record as “binds”.

B3: RPC10, subunit of human RNA polymerase III (natural protein)
chain: not shown
notes: RPC10 of human RNA polymerase III, with N-terminal ribbon domain (N-ribbon) and C-terminal ribbon domain (C-ribbon); Subunit of the 17-subunit Pol III complex; also called C11 (yeast equivalent); source: Expi293F cells, transiently expressed, purified to homogeneity as part of the recombinant human Pol III complex
With B3, in assay [1], the binding result is “binds”.
